Patent publication US20190367620A1 (Merck KGaA, published 2019)
Substitutions are numbered along the chain they refer to.

Legend:
[1] = molecular target: T1, rheFGFR1a-IIIc (rhesus monkey); experiment: SPR (Biacore 4000), antibody captured, His-tagged FGFR1 injected; no unit in the table, nM inferred from paragraph 90
T1 construct: Bought, His6 tag; also called rhesus monkey FGFR1a-IIIc His6-tagged
Protocol: (§1) Binding affinities of anti-FGFR1 antibodies to FGFR1 were measured by Surface Plasmon Resonance (SPR) using a GE Healthcare BIAcore 4000 instrument as follows. Goat anti-human Fc antibody (Jackson ImmunoResearch Laboratories #109-005-098) was first immobilized on BIAcore carboxymethylated dextran CM5 chip using direct coupling to free amino groups following the procedure described by the manufacturer. Antibodies were then captured on the CM5 biosensor chip to achieve approximately 200 response units (RU). Binding measurements were performed using the running HBS-EP+ buffer. A 2-fold dilution series of His-tagged FGFR1 proteins were injected at a flow rate of 30 μl/min at 25° C. Association rates (kₒₙ, per mol/s) and dissociation rates (koff, per s) were calculated using a simple 1:1 Langmuir binding model (Biacore 4000 Evaluation Software). The equilibrium dissociation constant (KD, mol) was calculated as the ratio of koff/kₒₙ.

[2] = molecular target: T2, human FGFR1b-IIIc extracellular domain with a HIS tag (human, UniProt P11362 22-376); experiment: as above
T2 construct: also called huFGFR1b-IIIc; hFGFR1b-IIIc
T2 sequence: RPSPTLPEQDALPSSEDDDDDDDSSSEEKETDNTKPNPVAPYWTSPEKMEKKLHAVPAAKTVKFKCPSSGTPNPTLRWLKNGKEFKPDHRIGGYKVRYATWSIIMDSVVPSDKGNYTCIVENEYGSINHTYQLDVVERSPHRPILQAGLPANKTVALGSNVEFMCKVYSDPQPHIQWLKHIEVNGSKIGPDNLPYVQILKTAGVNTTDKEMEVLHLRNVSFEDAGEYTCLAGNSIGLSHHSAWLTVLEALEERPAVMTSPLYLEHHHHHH
Protocol: as §1

[3] = molecular target: T3, muFGFR1a-IIIc (mouse, UniProt P16092 22-376); experiment: as above
T3 construct: Bought, His6 tag; also called mouse FGFR1a-IIIc His6-tagged; murine FGFR1a-IIIc
T3 sequence (looked up): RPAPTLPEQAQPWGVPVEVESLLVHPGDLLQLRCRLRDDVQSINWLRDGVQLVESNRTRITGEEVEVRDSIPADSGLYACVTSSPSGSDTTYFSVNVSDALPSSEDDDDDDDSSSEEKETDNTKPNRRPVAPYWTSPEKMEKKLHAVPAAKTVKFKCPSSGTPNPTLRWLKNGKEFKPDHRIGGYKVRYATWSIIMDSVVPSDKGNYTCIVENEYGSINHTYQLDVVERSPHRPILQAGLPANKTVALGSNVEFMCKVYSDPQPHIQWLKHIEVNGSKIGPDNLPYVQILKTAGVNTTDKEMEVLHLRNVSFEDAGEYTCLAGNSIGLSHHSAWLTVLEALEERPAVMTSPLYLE
Protocol: as §1

[4] = molecular target: T4, human FGFR1b-IIIb extracellular domain with a HIS tag (human); experiment: as above
T4 construct: also called huFGFR1b-IIIb; hFGFR1b-IIIb
T4 chain: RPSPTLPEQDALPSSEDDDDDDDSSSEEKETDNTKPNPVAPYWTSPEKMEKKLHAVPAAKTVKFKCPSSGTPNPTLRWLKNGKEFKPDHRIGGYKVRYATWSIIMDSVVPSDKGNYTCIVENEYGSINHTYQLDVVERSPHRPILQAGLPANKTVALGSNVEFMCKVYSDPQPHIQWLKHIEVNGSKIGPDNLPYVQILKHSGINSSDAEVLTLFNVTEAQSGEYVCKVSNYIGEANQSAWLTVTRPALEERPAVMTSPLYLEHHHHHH
Protocol: as §1

[5] = molecular target: T5, ratFGFR1a-IIIc (rat, UniProt Q04589 22-376); experiment: as above
T5 construct: Bought, His6 tag; also called rat FGFR1a-IIIc His6-tagged
T5 sequence (looked up): T3 sequence (looked up) with V53A, S83N, N164S, V287D
Protocol: as §1

[6] = molecular target: T4, human FGFR1b-IIIb extracellular domain …; experiment: ELISA, antibody titrated on huFGFR1b-IIIb, O.D. 450 nm [panel huFGFR1b-IIIb]
[7] = molecular target: T6, Human FGFR1-IIIc D3-His6 (human, UniProt P11362 254-376); experiment: SPR (NBD indicates no binding detected)
T6 construct: also called D3 domain; F3FR1c-D3
T6 sequence: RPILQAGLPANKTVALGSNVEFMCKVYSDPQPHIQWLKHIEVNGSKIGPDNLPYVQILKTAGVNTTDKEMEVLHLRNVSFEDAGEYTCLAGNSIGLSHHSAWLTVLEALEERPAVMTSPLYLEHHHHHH

- Kd [1]: 0.46 nM
- Kd [2]: 0.017 nM
- Kd [3]: 2.3 nM
- Kd [4]: 0.01 nM
- Kd [5]: 2.2 nM
- EC50 (read off the curve) [6]: ~0.03 nM
- binding result [7]: no binding
B1: mAb #A08 (antibody, V domains shown)
VH: EVQLQESGPGLVKPSGTLSLTCAVSGGSISSNNWWSWVRQPPGKGLEWIGEIYHSGSTSYNPSLKSRVTISVDKSKNQFSLKLNSVTAADTAVYYCARGTDWFDPWGQGTLVTVSS
VL: QAVLTQPPSVSVAPGQTARITCGGNNIGSESVHWYQQKPGQAPVLVVYDDSDRPSGIPERFSGSNSGNTATLTISRVEAGDEADYYCQVWDSTSDHRVFGGGTKLTVL
notes: Only variable domains are tied to the name mAb #A08 (hit); also called #A08 hit; mAb #08
